Test results published in patent US20260116920A1 (PEPTIDREAM, published 2026).
“And” between values parts separate entries of the source, which are not always exact repeats. Identical values can stand only once. Starred links: 1 amine or outer side, 2 acyl side, 3 side chain; linkers in the order of their positions; H or OH if unused. Positions of bridges follow the written chain, without caps; N, C: chain ends. Non-standard residues stand in square brackets, D forms with d. Primed or numbered codes have the meaning given here. No end group written: not given here. *: point of attachment. E(PEG8Me) = (S)-30-amino-27-oxo-2,5,8,11,14,17,20,23-octaoxa-26-azahentriacontane-31-oic acid, COCCOCCOCCOCCOCCOCCOCCOCCNC(=O)CC[C@H](N[*:1])C(=O)[*:2]; Phe(4-OMe)(3) = (S)-2-amino-3-(4-methoxyphenyl)propanoic acid (source code F4OMe), COc1ccc(C[C@H](N[*:1])C(=O)[*:2])cc1; F4aao = (S)-2-amino-3-(4-(carboxymethoxy)phenyl)propanoic acid, O=C([C@H](Cc1ccc(OCC(=O)[*:3])cc1)N[*:1])[*:2]; Ndm = N4,N4-dimethyl-L-asparagine, CN(C)C(=O)C[C@H](N[*:1])C(=O)[*:2]; Trp(1-CH2CO) = O=C([C@H](Cc1cn(CC(=O)[*:3])c2ccccc12)N[*:1])[*:2]; Phe(3-COOH) = N[C@@H](Cc1cccc(C(=O)O)c1)C(=O)O; NH(CH2CH2O)8Me = COCCOCCOCCOCCOCCOCCOCCOCCN*; NMePhe(3-Cl) = CN[C@@H](Cc1cccc(Cl)c1)C(=O)O; 3Pal(6-NH2) = Nc1ccc(C[C@H](N)C(=O)O)cn1; NMeY = CN[C@@H](Cc1ccc(O)cc1)C(=O)O; NMeF = CN[C@@H](Cc1ccccc1)C(=O)O; 3Pal = N[C@@H](Cc1cccnc1)C(=O)O; 4Pal = N[C@@H](Cc1ccncc1)C(=O)O

B1: 894_3152 (peptide)
peptide: {CH2CO}-AV[NMeF]VW[Ndm]YYIIRRY[NMeY]C-NH2
modifications: thioether N-15
SMILES: CC[C@H](C)[C@@H]1NC(=O)[C@H](Cc2ccc(O)cc2)NC(=O)[C@H](Cc2ccc(O)cc2)NC(=O)[C@H](CC(=O)N(C)C)NC(=O)[C@H](Cc2c[nH]c3ccccc23)NC(=O)[C@H](C(C)C)NC(=O)[C@H](Cc2ccccc2)N(C)C(=O)[C@H](C(C)C)NC(=O)[C@H](C)NC(=O)CSC[C@@H](C(N)=O)NC(=O)[C@H](Cc2ccc(O)cc2)N(C)C(=O)[C@H](Cc2ccc(O)cc2)NC(=O)[C@H](CCCNC(=N)N)NC(=O)[C@H](CCCNC(=N)N)NC(=O)[C@H]([C@@H](C)CC)NC1=O

Experiments:
[1] = target: T1, human transferrin receptor (hTfR) (human, UniProt P02786 89-760); test: SPR; C = KD 100 nM-1 uM
T1 construct: used as 0.5 uM hTfR dimer solution, immobilised on an NTA sensor chip (Ni capture plus EDC/NHS coupling); also called human TfR; TfR1
Procedure: (§1) NTA sensor chip (Global Life Sciences Technologies Japan K.K.) was inserted into BiacoreT200 (Global Life Sciences Technologies Japan K.K.), then the priming operation was performed three times by using running buffer containing: 10 mM HEPES pH 8.0 (Nacalai Tesque, Inc.), 150 mM NaCl (Nacalai Tesque, Inc.), 0.05% Tween 20 (Nacalai Tesque, Inc.), 0.1% BSA (SIGMA-ALDRICH) and 1.0% DMSO (FUJIFILM Wako Pure Chemical Corporation), and equilibrated at a flow rate of 30 μL/min. 350 mM EDTA solution was reacted at a flow rate of 10 μL/min for 60 seconds, 0.5 mM […] solution (Kishida Chemical Co., Ltd.) was reacted at a flow rate of 10 μL/min for 60 seconds, and then the NTA sensor chip was washed with 3 mM EDTA solution (Nacalai Tesque, Inc.) at a flow rate of 10 μL/min for 60 seconds. After mixing 50 μL each of 60 mM EDC solution (Global Life Science Technologies Japan K.K.) and 650 mM NHS solution (Global Life Science Technologies Japan K.K.), the reaction was carried out at a flow rate of 10 μL/min for 420 seconds. 150 μL of 0.5 μM hTfR dimer solution was prepared by dilution with running buffer and reacted at a flow rate of 10 μL/min for 300 seconds to immobilize hTfR on the NTA sensor chip. For the human transferrin receptor (hTfR), recombinant hTfR described in Example 2 of WO2018/124121 was used. After immobilization, capping was performed by reacting with 1.0 M ethanolamine solution (Global Life Sciences Technologies Japan K.K.) at a flow rate of 10 μL/min for 420 seconds. Peptide lysate prepared in DMSO solution to 10 mM was diluted with running buffer to be a final concentration of 10 μM peptide lysate, then peptide solutions of 100 nM, 50 nM, 25 nM, 10 nM, and 5 nM were prepared. Using the above samples, the kinetics of the peptide against hTfR was obtained by SPR measurement.
(§2) The kinetic evaluation model was single-cycle kinetics, and curve fitting was performed using Biacore T200 Evaluation Software Version 3.0 (Global Life Science Technologies Japan K.K.). The binding of the peptide to hTfR was evaluated by performing curve fitting on the obtained sensorgram by least squares method and obtaining the KD value.

[2] = target: T1, human transferrin receptor (hTfR); test: SPR, hTfR immobilised; legend: low signal indicates no activity
Procedure: (§3) NTA sensor chip (Global Life Sciences Technologies Japan K.K.) was inserted into BiacoreT200 (Global Life Sciences Technologies Japan K.K.), then the priming operation was performed three times by using running buffer containing: 10 mM HEPES pH 8.0 (Nacalai Tesque, Inc.), 150 mM NaCl (Nacalai Tesque, Inc.), 0.05% Tween 20 (Nacalai Tesque, Inc.), 0.1% BSA (SIGMA-ALDRICH) and 1.0% DMSO (FUJIFILM Wako Pure Chemical Corporation), and equilibrated at a flow rate of 30 μL/min. 350 mM EDTA solution was reacted at a flow rate of 10 μL/min for 60 seconds, 0.5 mM […] solution (Kishida Chemical Co., Ltd.) was reacted at a flow rate of 10 μL/min for 60 seconds, and then the NTA sensor chip was washed with 3 mM EDTA solution (Nacalai Tesque, Inc.) at a flow rate of 10 μL/min for 60 seconds. After mixing 50 μL each of 60 mM EDC solution (Global Life Science Technologies Japan K.K.) and 650 mM NHS solution (Global Life Science Technologies Japan K.K.), the reaction was carried out at a flow rate of 10 μL/min for 420 seconds. […]
as §2

[3] = target: T1, human transferrin receptor (hTfR); test: SPR; A = KD <1 nM
Procedure: as §1, §2

[4] = target: T1, human transferrin receptor (hTfR); test: SPR; ratio to 894_3151
[5] = target: T1, human transferrin receptor (hTfR); test: SPR, hTfR immobilised, single-cycle kinetics
Procedure: as §3, §2

T1 sequence (P02786 89-760 limits assumed): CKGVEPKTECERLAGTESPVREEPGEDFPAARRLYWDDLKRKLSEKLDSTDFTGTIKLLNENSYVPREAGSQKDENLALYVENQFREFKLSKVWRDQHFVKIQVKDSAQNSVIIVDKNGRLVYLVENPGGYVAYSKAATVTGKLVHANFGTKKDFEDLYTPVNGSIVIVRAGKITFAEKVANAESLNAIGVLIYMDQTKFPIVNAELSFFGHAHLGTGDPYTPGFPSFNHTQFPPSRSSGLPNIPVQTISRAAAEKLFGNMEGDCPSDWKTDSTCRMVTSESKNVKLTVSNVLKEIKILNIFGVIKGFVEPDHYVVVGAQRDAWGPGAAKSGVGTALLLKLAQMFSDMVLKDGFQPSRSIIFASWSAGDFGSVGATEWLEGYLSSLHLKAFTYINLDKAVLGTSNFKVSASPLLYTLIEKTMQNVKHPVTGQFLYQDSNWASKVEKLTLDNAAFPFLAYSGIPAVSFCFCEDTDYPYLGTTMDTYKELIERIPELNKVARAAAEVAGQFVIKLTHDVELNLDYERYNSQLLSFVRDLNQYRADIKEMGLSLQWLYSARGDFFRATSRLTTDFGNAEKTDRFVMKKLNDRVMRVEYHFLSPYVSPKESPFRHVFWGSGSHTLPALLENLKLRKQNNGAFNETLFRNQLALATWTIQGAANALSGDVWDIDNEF

Binder	KD [1] [nM]	also measured
{CH2CO}-AV[NMePhe(3-Cl)]V[Trp(1-CH2CO)]N[3Pal(6-NH2)][3Pal]IIRE(NH(CH2CH2O)8Me)[Phe(3-COOH)][NMeY]C-NH2 (thioether N-15; also: linker PEG4c) [894_0353]	100 to 1000	
{CH2CO}-AV[NMePhe(3-Cl)]V[Trp(1-CH2CO)]N[3Pal(6-NH2)][F4aao]IIRE(NH(CH2CH2O)8Me)[Phe(3-COOH)][NMeY]C-NH2 (thioether N-15; also: linker PEG4c) [894_0355]	100 to 1000	
{CH2CO}-AV[NMePhe(3-Cl)]V[Trp(1-CH2CO)]NY[Phe(4-OMe)(3)]IE[E(PEG8Me)][E(PEG8Me)]F[NMeY]C-NH2 (thioether N-15; also: linker G-de-de-de-ds-ds-KN3, attachment not given here) [894_3180]		binding result [2]: no binding (tested: peptide tested up to 100 nM)
{CH2CO}-AV[NMePhe(3-Cl)]V[Trp(1-CH2CO)]N[3Pal(6-NH2)][3Pal]IIRE(NH(CH2CH2O)8Me)[4Pal][NMeY]C-NH2 (thioether N-15; also: linker PEG4c) [894_0354]	100 to 1000	
{CH2CO}-AV[NMeF]VWNYYIIRRY[NMeY]C (thioether N-15; not fully specified (C-terminus)) [894_3151]		KD [3]: < 1 nM; KD (Each Peptide)/KD (894_3151) [4]: 1 and 1.4; Kd [5]: 1.3 nM and 1.8 nM
{CH2CO}-AV[NMePhe(3-Cl)]V[Trp(1-CH2CO)]N[3Pal(6-NH2)][F4aao]IIRE(NH(CH2CH2O)8Me)[4Pal][NMeY]C-NH2 (thioether N-15; also: linker PEG4c) [894_0356]	100 to 1000	
B1	100 to 1000	
{CH2CO}-AV[NMePhe(3-Cl)]VWN[3Pal(6-NH2)][F4aao]II[E(PEG8Me)]R[4Pal][NMeY]C-NH2 (thioether N-15; also: linker PEG4c, attachment not given here) [894_0455]	100 to 1000	
